Results from patent publication US10253086B2, “CD20 therapies, CD22 therapies, and combination therapies with a CD19 chimeric antigen receptor (CAR)-expressing cell” (Novartis AG, priority 2015, dated 2019).
Substitutions are numbered along the chain they refer to.

Assays:
[1] = biological target: recombinant human CD22-Fc (Homo sapiens, UniProt P20273); test: Surface expression of CD22 CAR in primary human T-cells (Protein-L, rhCD22-Fc); assay type: cell-based; details: day 10, flow cytometry
Experimental: Primary human T-cells were activated with anti-CD3/antiCD28 stimulatory beads on day 0, followed by lentiviral transduction of specified CAR constructs on day 1. Cells were expanded in vitro until day, 10 at which point they were analyzed by flow cytometry for surface expression of CAR. Two different approaches were utilized to determine surface expression of CAR: Protein-L-biotin followed by streptavidin-PE, and recombinant human CD22-Fc followed by anti-Fc-alexafluor 488. […] CD22 CAR m971 served as a positive control for binding both Protein-L and hrCD22-Fc, and Isotype CAR with no specificity (anti-gH) served as a positive control for Protein-L. T cells expressing no CAR were used as a negative control.

[2] = tested on: Raji, SEM, K562-hCD22, Daudi, and Nalm6; test: Primary T-cell tumor target killing assay; assay type: cell-based, human; details: for target cell killing: CD22 expressing luciferase target cell lines
From the text: Primary T-cells activated and transduced as described above were mixed with target cell lines stably expressing luciferase at the ratios indicated (FIG. 20A-20F). […] Untransduced T-cells (UTD) lacked the ability to kill target cell lines.

CD22 = test: NFAT assay of CD22 CAR in JNL cells on antigen-coated plates; assay type: cell-based, human
Experimental: Several CD22 CAR constructs were functionally validated in an NFAT assay. Briefly the experiments were performed as follows. A lentiviral vector (pELPS) carrying a nucleic acid, encoding a CD22 CAR with a CD22-binding scFv domain was introduced by electroporation into a Jurkat T cell line modified to express luciferase under the control of an NFAT response element (JNL). The cells were cultured and allowed to express the CAR construct. The electroporated cells were applied to a plate coated with the target antigen (CD22). Detection of luciferase signal in the coated plate was indicative of binding activity of the CD22 CAR to its antigen, leading to activation of the T cells and expression of luciferase.
The results also indicate that the different scFvs compete with m971 to different extents.
FIG. 72 is a graph showing the activation (in RLU) of several CD22 CAR-expressing JNL cells including CD22-57, CD22-58, CD22-59, CD22-60, CD22-61, CD22-62, and CD22-63, the scFv sequences of which are provided herein. Three different target proteins (CD22-FL-Fc, CD22-D567-Fc, and CD22-D67) were used to coat the tissue culture plates; a negative control (Fc) was also included. A mesothelin binding CAR (Meso-G07) was used as a negative control. CD22-12 and CD22-53 were used as positive controls. […] Domain mapping was performed on CD22 binding domains. Three different forms of antigens were used: CD22 full-length with all 7 external domains, Domain567 (in which domains 1-4 were deleted) and Domain67 (in which domains 1-5 were deleted). While not wishing to be bound by theory, it appears that the binding of various CD22 clones maps to the epitopes illustrated in FIG. 75.
Two scFvs, named CD22-64 and CD22-65, were produced by affinity maturation of hCD22-12. CAR constructs containing these scFvs were tested for activity in an NFAT assay as described above. […] The bars in the figure represent, from left to right, CD22 full length-Fc; CD22 D567-Fc; and an Fc only negative control used for coating of the plates.

Raji-Luc and Daudi-Luc = test: IFN-gamma and IL-2 secretion by CD22 CAR primary T cells; assay type: cell-based, human; details: E:T 10 to 1, 20-hr co-culture
Experimental: CD22 CAR constructs were also tested for the ability to promote secretion of IFN-gamma and IL-2. Briefly, transduced primary T cells from healthy donors expressing the different CD22 CARs were co-cultured with the CD22-positive target cells Raji-Luc and Daudi-Luc as well as the negative control K562-Luc. T cells and target cell were cultured in an effector-to-target cell ratio (E:T) of 10 to 1. Supernatants were harvested after 20-hr co-culture. […] Similar results were observed when Nalm6-Luc, Pfeiffer-Luc, and K562-CD22-Luc, and SEM-Luc cells were tested (data not shown). Minimal IFN-gamma secretion was observed when the K562-Luc negative control cell line was tested (bottom panel).

cynomolgus CD123 = test: Cross-reactivity of anti-CD123 clones with cynomolgus CD123; assay type: binding
From the text: Their activity was compared against mouse clones 1172 and 1176, comprising the VH and VL domains in a light-to-heavy orientation with a CD8 hinge domain, CD8 transmembrane domain, and 41BB-costimulatory domain. […] 1172 is not.

CD19 and CD22 = test: NFAT assay of bispecific CAR19/CAR22 constructs; assay type: cell-based
Experimental: The bispecific CD19-CD22 and CD22-CD19 constructs described above were tested in an NFAT assay, as described in the Examples below. As controls, an anti-CD19 alone CAR and an anti-CD22 alone CAR were used.

[3] = tested on: luciferase-expressing mantle cell line (RL luc); test: RL luc mantle cell lymphoma xenograft, CART19 with exogenous IL-7; assay type: in vivo, NSG mice
Experimental: Next, the effect of exogenous IL-7 treatment on anti-tumor activity of CART19 cells was assessed in a lymphoma animal model. NSG mice were engrafted with a luciferase-expressing mantle cell line (RL luc) on Day 0 (D0), followed by treatment of CART19 cells on Day 6. The NSG mice were divided into groups, where one group received no CART19 cells, a second group received 0.5×10^6 CART19 cells, a third group received 1×10^6 CART19 cells, and a fourth group received 2×10^6 CART19 cells. Tumor size was monitored by measuring the mean bioluminescence of the engrafted tumors over more than 80 days. […] When comparing the tumor burden of mice that received IL-7 treatment to control, before and after IL-7 treatment, tumor reduction in tumor burden was only seen in the mice that had received IL-7 treatment (FIG. 10C).
T cell dynamics following IL-7 treatment in the lymphoma animal model was also examined. Human CART19 cells were not detectable in the blood prior to IL-7 treatment. […] The extent of T cell expansion observed in mice receiving the IL-7 also correlated with tumor response. The mouse with the highest number of T cells detected in the blood at peak expansion during IL-7 treatment (mouse #3815) had the most robust reduction in tumor burden (see FIG. 10B). Moreover, the time of peak expansion correlated with the T cell dose injected as baseline. The number/level CD3-expressing cells in the blood were also measured before and after IL-7 treatment.

B1: CD22-12: human CD22 CAR, parent of CD22-64 and CD22-65 (protein)
scFv: EVQLQQSGPGLVKPSQTLSLTCAISGDSVLSNSDTWNWIRQSPSRGLEWLGRTYHRSTWYDDYASSVRGRVSINVDTSKNQYSLQLNAVTPEDTGVYYCARDRLQDGNSWSDAFDVWGQGTMVTVSSGGGGSGGGGSGGGGSQSALTQPASASGSPGQSVTISCTGTSSDVGGYNYVSWYQQHPGKAPKLMIYDVSNRPSGVSNRFSGSKSGNTASLTISGLQAEDEADYYCSSYTSSSTLYVFGTGTQLTVL
With B1 the “surface expression of CAR” value [1] was “positive surface expression”, the “activity in cell killing and cytokine secretion assays (Example 9)” value [2] was “activity comparable to m971” and the target cell killing [2] was “dose-dependent target cell killing”. The “activity (see Example 25)” value (CD22) was “found to have activity”, the “antigen binding / activation (RLU) vs m971” value (CD22; with and without m971 scFv competitor) was “bind the antigen approximately as well as the m971 positive control” and the IFN-gamma secretion (Raji-Luc and Daudi-Luc) was “induced IFN-gamma secretion”.

B2: NVS 3: human anti-human CD123 clone expressing CAR123-3 (antibody, V domains shown)
VH: QVQLVQSGAEVKKPGASVKVSCKASGYIFTGYYIHWVRQAPGQGLEWMGWINPNSGGTNYAQKFQGRVTMTRDTSISTAYMELSGLRSDDPAVYYCARDMNILATVPFDIWGQGTLVTVSS
VL: DIQLTQSPSSLSASVGDRVTITCRASQSISSYLNWYQQKPGKAPKLLIYAASSLQSGVPSRFSGSGSGTDFTLTVNSLQPEDFATYYCQQGDSVPLTFGGGTKVEIK
B2 was tested, and the “cross-reactivity against cynomolgus CD123” value (cynomolgus CD123) was “cross-reactive against cynomolgus CD123”.

B3: NVS 4: human anti-human CD123 clone expressing CAR123-4 (antibody, V domains shown)
VH: QVQLQQSGAEVKKSGASVKVSCKASGYTFTDYYMHWLRQAPGQGLEWMGWINPNSGDTNYAQKFQGRVTLTRDTSISTVYMELSRLRSDDTAVYYCARDMNILATVPFDIWGQGTMVTVSS
VL: B2 VL with L4M, V75I, N76S
B3 was tested, and the “cross-reactivity against cynomolgus CD123” value (cynomolgus CD123) was “cross-reactive against cynomolgus CD123”.

B4: CD19-CD22: bispecific scFv tandem fusion CAR, humanized anti-CD19 (104876) and hCD22-2 (protein)
scFv: EIVMTQSPATLSLSPGERATLSCRASQDISKYLNWYQQKPGQAPRLLIYHTSRLHSGIPARFSGSGSGTDYTLTISSLQPEDFAVYFCQQGNTLPYTFGQGTKLEIKGGGGSGGGGSGGGGSQVQLQESGPGLVKPSETLSLTCTVSGVSLPDYGVSWIRQPPGKGLEWIGVIWGSETTYYQSSLKSRVTISKDNSKNQVSLKLSSVTAADTAVYYCAKHYYYGGSYAMDYWGQGTLVTVSSGGGGSGGGGSGGGGSGGGGSEVQLQQSGPGLVKPSQTLSLTCAISGDSVSSNSAAWNWIRQSPSRGLEWLGRTYYRSKWYNDYAVSVKSRITINPDTSKNQFSLQLNSVTPEDTAVYYCARDLGWIAVAGTFDYWGQGTLVTVSSGGGGSGGGGSGGGGSQSALTQPASVSGSPGQSITISCTGTSSDVGGYNYVSWYQQHPGKAPKLMIYDVSKRPSGVSNRFSGSKSGNTASLTISGLQAEDEADYYCSSYTSSSLNHVFGTGTKVTVLT
With B4 the “activity in NFAT assay” value (CD19 and CD22) was “active against their targets”.

B5: CD22-CD19: bispecific scFv tandem fusion CAR, hCD22-2 and humanized anti-CD19 (104876) (protein)
scFv: EVQLQQSGPGLVKPSQTLSLTCAISGDSVSSNSAAWNWIRQSPSRGLEWLGRTYYRSKWYNDYAVSVKSRITINPDTSKNQFSLQLNSVTPEDTAVYYCARDLGWIAVAGTFDYWGQGTLVTVSSGGGGSGGGGSGGGGSQSALTQPASVSGSPGQSITISCTGTSSDVGGYNYVSWYQQHPGKAPKLMIYDVSKRPSGVSNRFSGSKSGNTASLTISGLQAEDEADYYCSSYTSSSLNHVFGTGTKVTVLTGGGGSGGGGSGGGGSGGGGSEIVMTQSPATLSLSPGERATLSCRASQDISKYLNWYQQKPGQAPRLLIYHTSRLHSGIPARFSGSGSGTDYTLTISSLQPEDFAVYFCQQGNTLPYTFGQGTKLEIKGGGGSGGGGSGGGGSQVQLQESGPGLVKPSETLSLTCTVSGVSLPDYGVSWIRQPPGKGLEWIGVIWGSETTYYQSSLKSRVTISKDNSKNQVSLKLSSVTAADTAVYYCAKHYYYGGSYAMDYWGQGTLVTVSS
In the case of B5, the “activity in NFAT assay” value (CD19 and CD22) is reported as “active against their targets”.

B6: IL-7: exogenous recombinant human IL-7 (protein, UniProt P13232 26-177, looked up)
Interleukin-7: DCDIEGKDGKQYESVLMVSIDQLLDSMKEIGSNCLNNEFNFFKRHICDANKEGMFLFRAARKLRQFLKMNSTGDFDLHLLKVSEGTTILLNCTGQVKGRKPAALGEAQPTKSLEENKSLKEQKKLNDLCFLKRLLQEIKTCWNKILMGTKEH
In the case of B6, the “reduction in tumor burden” value ([3]; IL-7 200 ng/mouse i.p. three times weekly from Day 85, mice with suboptimal CART19 response) is reported as 1-3 log, the “CD3-expressing cells in the blood” value ([3]; after IL-7 treatment vs control mice) is reported as “significant increase in CD3+ cells” and the “numbers of T cells in blood” value ([3]; upon IL-7 treatment) is reported as “rapid, but variable increase in the numbers of T cells”.

B7: m971-HL: CD22 (m971-derived) CAR construct that served as positive control (antibody, V domains shown)
VH: QVQLQQSGPGLVKPSQTLSLTCAISGDSVSSNSAAWNWIRQSPSRGLEWLGRTYYRSKWYNDYAVSVKSRITINPDTSKNQFSLQLNSVTPEDTAVYYCAREVTGDLEDAFDIWGQGTMVTV
VL: DIQMTQSPSSLSASVGDRVTITCRASQTIWSYLNWYQQRPGKAPNLLIYAASSLQSGVPSRFSGRGSGTDFTLTISSLQAEDFATYYCQQSYSIPQTFGQGTKLEIK
With B7 the target cell killing [2] was “dose-dependent target cell killing” and the IFN-gamma secretion (Raji-Luc and Daudi-Luc) was “induced IFN-gamma secretion”.
